The text below walks through data of article doi:10.1101/2022.02.08.479534, “FoxP3 can fold into two distinct dimerization states with divergent functional implications for T cell homeostasis”.

For series [1], the target named is T1, FoxP3ΔN;NFAT1 (394-680) (Mus musculus;Mus musculus, UniProt Q99JB6;Q60591 188-423;394-680, |).
T1 sequence 1: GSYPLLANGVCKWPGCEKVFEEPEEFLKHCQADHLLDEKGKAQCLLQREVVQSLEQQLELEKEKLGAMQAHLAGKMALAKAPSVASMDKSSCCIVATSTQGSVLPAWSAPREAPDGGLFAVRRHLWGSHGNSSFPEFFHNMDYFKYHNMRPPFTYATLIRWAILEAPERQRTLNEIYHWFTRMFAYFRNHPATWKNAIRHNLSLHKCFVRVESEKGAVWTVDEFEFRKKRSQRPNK
T1 sequence 2: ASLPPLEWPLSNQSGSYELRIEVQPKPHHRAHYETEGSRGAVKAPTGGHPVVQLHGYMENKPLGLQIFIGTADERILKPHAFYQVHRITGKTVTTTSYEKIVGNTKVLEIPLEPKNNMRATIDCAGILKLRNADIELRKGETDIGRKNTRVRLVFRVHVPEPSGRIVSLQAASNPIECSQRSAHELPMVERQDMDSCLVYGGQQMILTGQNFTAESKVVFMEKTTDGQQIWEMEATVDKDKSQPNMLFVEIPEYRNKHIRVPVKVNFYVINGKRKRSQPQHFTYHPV
In words: restriction enzyme protection; 3.2 uM FoxP3, 0.4 uM NFAT; XhoI protected, BamHI accessible; EMSA: 0.2 uM DNA, 20 mM Tris pH 7.5, 150 mM NaCl, 1.5 mM MgCl2, 2 mM DTT, 30 min at 4 C; anti-HA bead DNA pull-down: 20 min at room temperature; the EMSA IR-FKHM4g length is taken as 31 bp. The note with it: protein: recombinant;recombinant; tags: His6-NusA cleaved (HRV3C);His6-NusA cleaved; blunt. Background: In EMSA bound probe runs differently from free probe, usually more slowly.

Series [2] concerns the target T2, MBP-FoxP3ΔN (Mus musculus, UniProt Q99JB6 188-423).
T2 sequence: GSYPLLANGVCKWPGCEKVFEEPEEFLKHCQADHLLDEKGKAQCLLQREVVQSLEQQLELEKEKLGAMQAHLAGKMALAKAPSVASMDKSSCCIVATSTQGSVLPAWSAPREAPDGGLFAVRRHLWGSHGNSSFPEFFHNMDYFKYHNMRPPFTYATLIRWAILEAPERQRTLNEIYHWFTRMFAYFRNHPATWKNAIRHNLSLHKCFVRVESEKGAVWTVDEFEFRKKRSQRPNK
Nature of the series: MBP pull-down; strong; EMSA: 0.2 uM DNA, 20 mM Tris pH 7.5, 150 mM NaCl, 1.5 mM MgCl2, 2 mM DTT, 30 min at 4 C; anti-HA bead DNA pull-down: 20 min at room temperature; the EMSA IR-FKHM4g length is taken as 31 bp. The settings on record: protein: recombinant; tags: His6-MBP; blunt.

The target in series [3] is T3, FoxP3ΔN (Mus musculus, UniProt Q99JB6 188-423).
T3 sequence: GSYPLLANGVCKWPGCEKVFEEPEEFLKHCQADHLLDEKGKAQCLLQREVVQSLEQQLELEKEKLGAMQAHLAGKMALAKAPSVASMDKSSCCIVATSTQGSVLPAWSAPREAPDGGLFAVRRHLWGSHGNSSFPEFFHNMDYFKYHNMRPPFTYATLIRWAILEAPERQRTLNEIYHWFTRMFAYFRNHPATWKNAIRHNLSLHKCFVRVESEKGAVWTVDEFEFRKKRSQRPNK
Nature of the series: EMSA; up to 0.8 uM; nearly undetectable; EMSA: 0.2 uM DNA, 20 mM Tris pH 7.5, 150 mM NaCl, 1.5 mM MgCl2, 2 mM DTT, 30 min at 4 C; anti-HA bead DNA pull-down: 20 min at room temperature; the EMSA IR-FKHM4g length is taken as 31 bp. The settings on record: protein: recombinant; tags: His6-NusA cleaved (HRV3C); chain copies: 2; blunt.

For series [4], the target named is T4, NusA-FoxP2RBR-forkhead (Mus musculus, UniProt P58463 447-588).
T4 sequence: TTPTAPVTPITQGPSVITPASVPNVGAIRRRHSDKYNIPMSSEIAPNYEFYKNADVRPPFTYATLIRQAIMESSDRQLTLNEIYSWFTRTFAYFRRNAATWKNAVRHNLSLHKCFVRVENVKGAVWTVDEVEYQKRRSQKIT
Nature of the series: EMSA; equal to IR-FKHM4g; EMSA: 0.2 uM DNA, 20 mM Tris pH 7.5, 150 mM NaCl, 1.5 mM MgCl2, 2 mM DTT, 30 min at 4 C; anti-HA bead DNA pull-down: 20 min at room temperature; the EMSA IR-FKHM4g length is taken as 31 bp. The settings on record: protein: recombinant; tags: His6-NusA; blunt.

The target in series [5] is T5, NusA-FoxP4RBR-forkhead (Mus musculus, UniProt Q9DBY0 418-577).
T5 sequence: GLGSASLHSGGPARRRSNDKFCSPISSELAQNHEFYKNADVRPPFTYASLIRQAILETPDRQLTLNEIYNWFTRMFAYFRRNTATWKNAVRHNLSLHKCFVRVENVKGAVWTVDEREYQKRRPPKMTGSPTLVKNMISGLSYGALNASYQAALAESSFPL
The series is described as above. The settings on record: protein: recombinant; tags: His6-NusA; blunt.

Series [6] has as its target T6, NusA-FoxP1RBR-forkhead (Mus musculus, UniProt P58462 433-579).
T6 sequence: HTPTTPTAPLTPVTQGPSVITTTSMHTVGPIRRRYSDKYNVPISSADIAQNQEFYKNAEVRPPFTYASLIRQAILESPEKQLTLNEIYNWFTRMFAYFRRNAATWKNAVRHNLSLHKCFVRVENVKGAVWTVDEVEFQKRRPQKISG
The description is as above. The settings on record: protein: recombinant; tags: His6-NusA; blunt.

In series [7] the target is T2, MBP-FoxP3ΔN. In words: MBP pull-down; EMSA: 0.2 uM DNA, 20 mM Tris pH 7.5, 150 mM NaCl, 1.5 mM MgCl2, 2 mM DTT, 30 min at 4 C; anti-HA bead DNA pull-down: 20 min at room temperature; the EMSA IR-FKHM4g length is taken as 31 bp. The note with it: protein: recombinant; tags: His6-MBP; blunt.
The target of series [8] is T2, MBP-FoxP3ΔN. In words: MBP pull-down; not efficiently bound; EMSA: 0.2 uM DNA, 20 mM Tris pH 7.5, 150 mM NaCl, 1.5 mM MgCl2, 2 mM DTT, 30 min at 4 C; anti-HA bead DNA pull-down: 20 min at room temperature; the EMSA IR-FKHM4g length is taken as 31 bp. The note with it: protein: recombinant; tags: His6-MBP; blunt.
Series [9] concerns the target T1, FoxP3ΔN;NFAT1 (394-680). Nature of the series: restriction enzyme protection; 1.6 uM FoxP3, 0.4 uM NFAT; XhoI and BamHI protected, EcoRI accessible; EMSA: 0.2 uM DNA, 20 mM Tris pH 7.5, 150 mM NaCl, 1.5 mM MgCl2, 2 mM DTT, 30 min at 4 C; anti-HA bead DNA pull-down: 20 min at room temperature; the EMSA IR-FKHM4g length is taken as 31 bp. The note with it: protein: recombinant;recombinant; tags: His6-NusA cleaved (HRV3C);His6-NusA cleaved; blunt.

B1: IR-FKHM11g (54bp) (dsDNA)
DNA 1: TTAGGAAAATTTGTTTACTCGAGTGTACGGTAAACAGTGGATCCGAATTCATAT
DNA 2: ATATGAATTCGGATCCACTGTTTACCGTACACTCGAGTAAACAAATTTTCCTAA
Turning to B1, in [1], the binding result is on record as “binds”.

B2: Major seq8-seq9 (dsDNA)
DNA 1: GTTTGTTTCCCAGGTAAAACAACC
DNA 2: GGTTGTTTTACCTGGGAAACAAAC
For the molecule B2, in series [2], the binding result is “binds”.

B3: sFKHM (31bp) (dsDNA)
DNA 1: TTAGGAAAATTTGTTTACTCGACGCGGCAAA
DNA 2: TTTGCCGCGTCGAGTAAACAAATTTTCCTAA
Take B3: the binding result is reported as “no binding” in series [3], “binds” in series [4], “binds” in series [5] and “binds” in series [6].

B4: FKHM-seq5 (dsDNA)
DNA 1: TTAGGAAAATTTGTTTACTCGAAATGCAAAA
DNA 2: TTTTGCATTTCGAGTAAACAAATTTTCCTAA
Regarding B4, the binding result in series [7] is “binds”.

B5: FKHM-seq1 (dsDNA)
DNA 1: ATTTGTTTACTCGAGACGCGAAAT
DNA 2: ATTTCGCGTCTCGAGTAAACAAAT
B5: in series [7], the binding result is given as “binds”.

B6: Major FKHM-seq5 (dsDNA)
DNA 1: AAATGTTTACTAGGAATGCAATGA
DNA 2: TCATTGCATTCCTAGTAAACATTT
On to B6, for which the binding result in series [7] is reported as “binds”.

B7: FKHM-seq8 (dsDNA)
DNA 1: TTAGGAAAATTTGTTTACTCGAGGAAACAAA
DNA 2: TTTGTTTCCTCGAGTAAACAAATTTTCCTAA
As to B7, in [7], the binding result is given as “binds”.

B8: IR-seq11 (dsDNA)
DNA 1: TTAGGAAAATTTGTTTAATCGATTAAACAAA
DNA 2: TTTGTTTAATCGATTAAACAAATTTTCCTAA
On to B8, for which the binding result in series [8] is recorded as “no binding”.

B9: FKHM-seq9 (dsDNA)
DNA 1: TTAGGAAAATTTGTTTACTCGATAAAACAAA
DNA 2: TTTGTTTTATCGAGTAAACAAATTTTCCTAA
Consider B9, for which, in series [7], the binding result is listed as “binds”.

B10: IR-seq8 (dsDNA)
DNA 1: TTAGGAAAATTTGTTTCCTCGAGGAAACAAA
DNA 2: TTTGTTTCCTCGAGGAAACAAATTTTCCTAA
On to B10, for which the binding result in series [8] was “no binding”.

B11: FKHM-seq11 (dsDNA)
DNA 1: TTAGGAAAATTTGTTTACTCGATTAAACAAA
DNA 2: TTTGTTTAATCGAGTAAACAAATTTTCCTAA
In the case of B11, the binding result in series [7] is recorded as “binds”.

B12: IR-seq5 (dsDNA)
DNA 1: TTAGGAAAATTTTGCATTTCGAAATGCAAAA
DNA 2: TTTTGCATTTCGAAATGCAAAATTTTCCTAA
Take B12: the binding result in series [8] was “no binding”.

B13: FKHM-seq3 (dsDNA)
DNA 1: ATTTGTTTACTCGAGATGCATCAT
DNA 2: ATGATGCATCTCGAGTAAACAAAT
For the molecule B13, the binding result in series [7] is “binds”.

B14: IR-seq3 (dsDNA)
DNA 1: ATGATGCATCTCGAGATGCATCAT
DNA 2: ATGATGCATCTCGAGATGCATCAT
For B14, the binding result in series [7] was “no binding”.

B15: IR-FKHM4g (47bp) (dsDNA)
DNA 1: TTAGGAAAATTTGTTTACTCGAGTAAACAGTGGATCCGAATTCATAT
DNA 2: ATATGAATTCGGATCCACTGTTTACTCGAGTAAACAAATTTTCCTAA
For the molecule B15, the binding result in series [9] is “binds”.

B16: FKHM-seq2 (dsDNA)
DNA 1: ATTTGTTTACTCGAGACGCAAAAT
DNA 2: ATTTTGCGTCTCGAGTAAACAAAT
For B16, the binding result in series [7] was “binds”.

B17: sFKHM (22bp) (dsDNA)
DNA 1: TTAGGAAAATTTGTTTACTCGA
DNA 2: TCGAGTAAACAAATTTTCCTAA
B17: the binding result in [3] was “no binding”.

B18: IR-seq9 (dsDNA)
DNA 1: TTAGGAAAATTTGTTTTATCGATAAAACAAA
DNA 2: TTTGTTTTATCGATAAAACAAATTTTCCTAA
Turning to B18, the binding result in series [8] is reported as “no binding”.

B19: IR-seq2 (dsDNA)
DNA 1: ATTTTGCGTCTCGAGACGCAAAAT
DNA 2: ATTTTGCGTCTCGAGACGCAAAAT
Regarding B19, the binding result in [7] is on record as “no binding”.

B20: IR-seq1 (dsDNA)
DNA 1: ATTTCGCGTCTCGAGACGCGAAAT
DNA 2: ATTTCGCGTCTCGAGACGCGAAAT
Take B20: in series [7], the binding result is given as “no binding”.
